US6861578B1, “Method for plant protection against insects or nematodes by transformation with a nucleic acid encoding equistatin” (Plant Research International B.V., priority 1997, dated 2005)

Key:
papain = biological target: T1, papain (Carica papaya, UniProt P00784); experiment: Stoichiometry and inhibition constant of recombinant equistatin with papain (Z-Phe-Arg-pNA, microtiterplate); format: biochemical
T1 sequence (P00784 134-345): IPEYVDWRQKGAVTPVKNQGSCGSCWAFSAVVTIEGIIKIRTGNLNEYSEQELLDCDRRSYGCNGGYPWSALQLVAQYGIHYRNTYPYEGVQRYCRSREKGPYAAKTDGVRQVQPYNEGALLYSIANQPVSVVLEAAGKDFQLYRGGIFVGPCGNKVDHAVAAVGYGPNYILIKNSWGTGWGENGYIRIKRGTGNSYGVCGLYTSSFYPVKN
Procedure: In a microtiterplate 20 μl papain solution (a fresh solution of 1 mg/ml (Sigma) in MES buffer titrated with E-64 to determine the active fraction, usually 17%) is combined with 0-80 μl of known protein concentration. MES buffer (50 mM MES, pH 6.5; 0.6 mg/ml L-cysteine; 1 mg/ml BSA fraction V) is added to a final volume of 150 μl. The mixture is incubated for 30 min at room temperature and subsequently 50 μl of substrate solution (60 μl of 15 mg/ml Z-Phe-Arg-pNA dissolved in methanol is diluted in 940 μl MES buffer before use). The plate is immediately placed in the nicrotiterplate reader and measured at 405 nm. Readings up to an OD600 of 0.3 are linear. Rates of change are used to determine the activity with increasing amounts of inhibitor. Results are graphically represented and at stoichiometric concentrations the amount of dissociated complex is determined to determine the apparent equilibrium dissociation constant (Ki). […] The apparent equilibrium dissociation constant for papain was estimated to be 0.6 nM in agreement with the data published for the purified protein (Lenarcic et al. (1997) J. Biol. Chem. 272: 13899-13903.

cathepsin D = cathepsin D (Homo sapiens, UniProt P07339); experiment: Incubation of equistatin with cathepsin D, reverse-phase HPLC (substrate test); format: biochemical; settings: incubated in different molar concentrations and times
Sequence of cathepsin D (P07339 65-412, species assumed): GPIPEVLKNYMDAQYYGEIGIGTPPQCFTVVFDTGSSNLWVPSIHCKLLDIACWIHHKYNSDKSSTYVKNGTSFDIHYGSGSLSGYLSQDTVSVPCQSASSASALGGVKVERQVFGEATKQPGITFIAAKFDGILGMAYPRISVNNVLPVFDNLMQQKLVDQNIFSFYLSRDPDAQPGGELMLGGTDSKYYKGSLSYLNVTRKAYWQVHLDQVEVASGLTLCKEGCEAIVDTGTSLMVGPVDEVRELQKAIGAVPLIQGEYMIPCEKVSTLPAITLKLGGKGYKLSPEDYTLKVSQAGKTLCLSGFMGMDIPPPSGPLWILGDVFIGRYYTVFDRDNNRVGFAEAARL
Procedure: In panel A the equistatin was incubated with cathepsin D in a final molar concentration of 2:1, and in panel B the equistatin was fragmented using 1% (w/w) β-trypsin. Identities of peaks were based on the N-terminal sequences.
Equistatin was isolated from sea anemone A. equina by a procedure that was described previously utilizing its inhibitory activity toward cysteine proteinase, papain (Lenarcic et al. (1997) J. Biol. Chem. 272: 13899). Besides cysteine proteinases, equistatin was screened for the inhibition of two other classes of proteinases, aspartic proteinases (cathepsin D) and serine proteinase (trypsin). […] 500 μg equistatin was incubated with 5 μg of β-trypsin in 0.5 ml of 0.1 M Tris/HCl buffer pH 8.0, for 40 min at 37° C. Reaction was stopped by the addition of trifluoroacetic acid. The 9-trypsin digest of equistatin was separated by high performance liquid chromatography (Milton Roy Co.) using a reverse phase Vydac C18 column equilibrated with 5% acetonicril containing 0.1% (v/v) trifluoroacetic acid. Elution was performed using a linear gradient of 80% (v/v) acetonitrile containing 0.1% (v/v) trifluoroacetic acid. Absorbance was monitored at 215 nm. Two major peaks were obtained on the reverse-phase. HPLC (FIG. 9B). The molecular weights, estimated by the SDS PAGE under non-reducing conditions, were about 7,000 and 14,000 (FIG. 10). […]

[1] = tested on: amino-peptidase activity of Colorado potato beetle larval gut extracts; experiment: Amino-peptidase activity of Colorado potato beetle gut extract, L-Arg-pNA; format: biochemical, Leptinotarsa decemlineata
From the text: Guts of final instar Colorado potato beetle larvae reared on methyl jasmonate induced plants were isolated and extracted essentially as described (Bolter and Jongsma, J. Insect Physiol. 41: 1071-1078). In these gut extracts the proteases that are sensitive to the protease inhibitors of potato are already complexed. The residual protease activity is composed of potato protease-inhibitor-insensitive proteases which were induced in response to the methyl jasmonate induced potato inhibitors. These proteases are the proteases that render the beetle larvae insensitive to protease inhibitor defense of the potato plant. Wle tested a broad range of different cysteisie protease inhibitors for activity specifically against these induced potato protease inhibitor-insensitive cysteine protesses. Nearly all of these inhibitors were purified at the Jozef Stefan Institute in Slovenia. Testing their potential against Colorado potato beetle was done using both general protein substrates (azocasein, table 2) as well as specific synthetic substrates (L-Arg-pNA, table 3; pGlu-Phe-Leu-pNA, table 4; Z-Phe-Arg-pNA, table 5; Z-Arg-Arg-pNA, table 6). In specific cases inhibitors were tested at two concentrations, eauimolar and in excess to the protease, in order to obtain an indication of the tightness of the complex. […] Importantly, this class of inhibitors was capable of inhibiting nearly all general cysteine protease activity. The equistatin peptide molecule and a functional derivative thereof were not very active against the aminopeptidase-like cysteine protease activity. […] The best combination of inhibitors for full toxicity against the Colorado potato beetle would therefore be a combination of equistatin or p41 invariant chain fragment and stefin-like inhibitors.

B1: equistatin: cysteine/aspartic protease inhibitor from sea anemone Actinia equina with three type I repeated thyroglobulin domains; purified or recombinant from E. coli (protein)
chain: SLTKCQQLQASANSGLIGTYVPQCKETGEFEEKQCWGSTGYCWCVDEDGKEILGTKIRGSPDCSRRKAALTLCQMMQAIIVNVPGWCGPPSCKADGSFDEVQCCASNGECYCVDKKGKELEGTRQQGRPTCERHLSECEEARIKAHSNSLRVEMFVPECLEDGSYNPVQCWPSTGYCWCVDEGGVKVPGSDVRFKRPTC
modifications: left off: large carriers; small tags and cut ends
notes: purified or recombinant from E. coli
In the case of B1, the “molecules of papain inhibited by one molecule of equistatin” value (papain) is reported as “approximately 1 molecule”, the “degradation of equistatin by cathepsin D” value (cathepsin D) is reported as “No degradation products were observed” and the “% of residual activity, equimolar” value ([1]; equimolar) is reported as 85%. The “% of residual activity, excess inhibitor” value ([1]; excess inhibitor) was 75%.
